Numbering of substitutions follows the chain as printed.
Legend:
[1] = molecular target: T1, RccR S139A S139A (Pseudomonas aeruginosa PAO1) (UniProt Q9HTC8); assay: EMSA; settings: EMSA: 10 nM FAM-DNA, 20 mM Tris-HCl pH 8.5, 150 mM KCl, 5 mM MgCl2, 1 mM EDTA, 1 mM DTT, 0.8% Tween 20, 2.5% glycerol, on ice 30 min; 6% native PAGE, 0.5x TBE
T1 sequence: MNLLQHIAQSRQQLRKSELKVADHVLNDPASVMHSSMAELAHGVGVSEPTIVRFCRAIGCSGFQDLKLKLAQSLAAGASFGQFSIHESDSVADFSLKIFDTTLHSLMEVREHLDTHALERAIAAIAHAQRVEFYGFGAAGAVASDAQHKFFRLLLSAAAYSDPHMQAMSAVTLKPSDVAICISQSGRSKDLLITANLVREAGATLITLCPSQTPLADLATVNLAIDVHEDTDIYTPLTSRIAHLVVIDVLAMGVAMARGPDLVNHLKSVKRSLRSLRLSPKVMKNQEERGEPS

[2] = molecular target: T2, RccR H148A H148A (Pseudomonas aeruginosa PAO1) (UniProt Q9HTC8); assay: EMSA; settings: EMSA: 10 nM FAM-DNA, 20 mM Tris-HCl pH 8.5, 150 mM KCl, 5 mM MgCl2, 1 mM EDTA, 1 mM DTT, 0.8% Tween 20, 2.5% glycerol, on ice 30 min; 6% native PAGE, 0.5x TBE
T2 sequence: T1 sequence with A139S, H148A

[3] = molecular target: T3, RccR WT (Pseudomonas aeruginosa PAO1) (UniProt Q9HTC8); assay: EMSA; settings: EMSA: 10 nM FAM-DNA, 20 mM Tris-HCl pH 8.5, 150 mM KCl, 5 mM MgCl2, 1 mM EDTA, 1 mM DTT, 0.8% Tween 20, 2.5% glycerol, on ice 30 min; 6% native PAGE, 0.5x TBE
T3 sequence: T1 sequence with A139S

[4] = molecular target: T4, RccR H164A H164A (Pseudomonas aeruginosa PAO1) (UniProt Q9HTC8); assay: EMSA; settings: EMSA: 10 nM FAM-DNA, 20 mM Tris-HCl pH 8.5, 150 mM KCl, 5 mM MgCl2, 1 mM EDTA, 1 mM DTT, 0.8% Tween 20, 2.5% glycerol, on ice 30 min; 6% native PAGE, 0.5x TBE
T4 sequence: T1 sequence with A139S, H164A

[5] = molecular target: RccR (PA5438), RpiR family transcription factor of Pseudomonas aeruginosa PAO1 (Pseudomonas aeruginosa PAO1); assay: crystal structure

Substance	binding [1]	binding [2]	binding [3]	binding [4]	stoichiometry N [5]
GGCTTGCTCCAGGGCGGAAAGGCTTCCAGAATCGGATGCCATAGGTGAGCGGCCGGCCTCGTGGGCGACCGCAGCTAATTCTTGGATGTTCTCCGGGGGTGTACCCGGCGACTTGTAGTTTTACTACAGATCAGTCTGAGAAACAGCCCTCTGGATACAATTTTTAGTAGTAAAACTACATTTCGATTGTCGCTGTCAGGCTATAAGGCCCGATGT (double strand) [aceE promoter]	no binding	no binding	binds	no binding	–
RccR (PA5438), RpiR family transcription factor of Pseudomonas aeruginosa PAO1 (natural protein)	–	–	–	–	4
TGTTTGCCTCACTCTGCTCTAGACCAGCTCTGGACCCGGGCCGCACGGCCTTGTAGTCCGAGCCGCGGCATACTACATGATGCCGCGGGAAAAATCAGTGGTTACGCGTCGCGTTACGACTGGATGACGCTTCACGGTCACGTTGGCCAGGCTCAATGTTCGCAAAAAAACTGTACTTTGTTCCAGATAAATCTAAAAACAGTACACGATTTATCACGAGCCCA (double strand) [glcB promoter]	–	–	binds	–	–
